# B1: Refmab #6 (antibody, V domains shown)
# VH: QVQLQQPGAEVVKPGASVKMSCKASGYTFTSYYIHWIKQTPGQGLEWVGVIYPGNDDISYNQKFQGKATLTADKSSTTAYMQLSSLTSEDSAVYYCAREVRLRYFDVWGQGTTVTVSS
# VL: EIVLTQSPGSLAVSPGERVTMSCKSSQSVFFSSSQKNYLAWYQQIPGQSPRLLIYWASTRESGVPDRFTGSGSGTDFTLTISSVQPEDLAIYYCHQYLSSRTFGQGTKLEIK
# notes: Full-length format is human IgG1 Fc silent (PG-LALA); also made as Fab; The alanine scan used IgG or Fab
# B2: Refmab #6 (antibody, human IgG1, V domains shown)
# VH: B1 VH
# VL: B1 VL
# B3: Refmab #5 (antibody, V domains shown)
# VH: QVQLVQSGAEVKKPGASVKVSCKASGYTFTNYDINWVRQAPGQGLEWIGWIYPGDGSTKYNEKFKAKATLTADTSTSTAYMELRSLRSDDTAVYYCASGYEDAMDYWGQGTTVTVSS
# VL: DIQMTQSPSSLSASVGDRVTINCKASQDINSYLSWFQQKPGKAPKTLIYRANRLVDGVPSRFSGSGSGQDYTLTISSLQPEDFATYYCLQYDEFPLTFGGGTKVEIK
# notes: as for B1
# B4: Refmab #5 (antibody, human IgG1, V domains shown)
# VH: B3 VH
# VL: B3 VL
# What was measured:
# [1] = molecular target: human CD33 P201A (human, UniProt P20138 18-364); test: alanine scan, flow cytometry;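 also: HEK293-T cells transiently expressing single-residue alanine mutants of CD33 (alanine swapped to serine), antibody binding read by fluorescence in duplicate, background-subtracted, expressed relative to wild-type CD33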
# Chain of human CD33 P201A (P20138 18-364 P201A limits assumed): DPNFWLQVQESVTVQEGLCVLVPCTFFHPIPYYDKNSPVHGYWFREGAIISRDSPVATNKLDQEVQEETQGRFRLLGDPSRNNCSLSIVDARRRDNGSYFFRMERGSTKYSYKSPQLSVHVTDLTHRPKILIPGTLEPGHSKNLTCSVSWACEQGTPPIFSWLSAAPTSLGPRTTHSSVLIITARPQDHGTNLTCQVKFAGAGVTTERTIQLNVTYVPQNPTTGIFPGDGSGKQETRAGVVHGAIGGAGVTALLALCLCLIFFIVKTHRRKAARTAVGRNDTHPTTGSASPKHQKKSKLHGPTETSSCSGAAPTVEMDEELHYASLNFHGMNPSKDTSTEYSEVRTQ
# [2] = molecular target: human CD33 Q204A (human, UniProt P20138 18-364); test: alanine scan, flow cytometry;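 also: HEK293-T cells transiently expressing single-residue alanine mutants of CD33 (alanine swapped to serine), antibody binding read by fluorescence in duplicate, background-subtracted, expressed relative to wild-type CD33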
# [3] = molecular target: human CD33 D205A (human, UniProt P20138 18-364); test: alanine scan, flow cytometry;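 also: HEK293-T cells transiently expressing single-residue alanine mutants of CD33 (alanine swapped to serine), antibody binding read by fluorescence in duplicate, background-subtracted, expressed relative to wild-type CD33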
# [4] = molecular target: human CD33 K215A (human, UniProt P20138 18-364); test: alanine scan, flow cytometry;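 also: HEK293-T cells transiently expressing single-residue alanine mutants of CD33 (alanine swapped to serine), antibody binding read by fluorescence in duplicate, background-subtracted, expressed relative to wild-type CD33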
# Chain of human CD33 K215A (P20138 18-364 K215A limits assumed): as the sequence (P20138 18-364 P201A limits assumed) above, with A184P, K198A counted along it
# [5] = molecular target: human CD33 G218A (human, UniProt P20138 18-364); test: alanine scan, flow cytometry
# Chain of human CD33 G218A (P20138 18-364 G218A limits assumed): as the sequence (P20138 18-364 P201A limits assumed) above, with A184P, G201A counted along it
# [6] = molecular target: human CD33 G220A (human, UniProt P20138 18-364); test: alanine scan, flow cytometry
# [7] = molecular target: human CD33 T222A (human, UniProt P20138 18-364); test: alanine scan, flow cytometry
# [8] = molecular target: human CD33 E224A (human, UniProt P20138 18-364); test: alanine scan, flow cytometry
# [9] = molecular target: human CD33 V231A (human, UniProt P20138 18-364); test: alanine scan, flow cytometry
# Chain of human CD33 V231A (P20138 18-364 V231A limits assumed): as the sequence (P20138 18-364 P201A limits assumed) above, with A184P, V214A counted along it
# [10] = molecular target: human CD33 P235A (human, UniProt P20138 18-364); test: alanine scan, flow cytometry
# [11] = molecular target: human CD33 T240A (human, UniProt P20138 18-364); test: alanine scan, flow cytometry
# [12] = molecular target: human CD33 P244A (human, UniProt P20138 18-364); test: alanine scan, flow cytometry
# [13] = molecular target: human CD33 G247A (human, UniProt P20138 18-364); test: alanine scan, flow cytometry
# Chain of human CD33 G247A (P20138 18-364 G247A limits assumed): as the sequence (P20138 18-364 P201A limits assumed) above, with A184P, G230A counted along it
# [14] = molecular target: human CD33 E252A (human, UniProt P20138 18-364); test: alanine scan, flow cytometry
# [15] = molecular target: human CD33 V257A (human, UniProt P20138 18-364); test: alanine scan, flow cytometry
# [16] = molecular target: human CD33 H259A (human, UniProt P20138 18-364); test: alanine scan, flow cytometry
# Chain of human CD33 H259A (P20138 18-364 H259A limits assumed): as the sequence (P20138 18-364 P201A limits assumed) above, with A184P, H242A counted along it
# [17] = molecular target: human CD33 L270A (human, UniProt P20138 18-364); test: alanine scan, flow cytometry
# Chain of human CD33 L270A (P20138 18-364 L270A limits assumed): as the sequence (P20138 18-364 P201A limits assumed) above, with A184P, L253A counted along it
# [18] = molecular target: human CD33 D51K (human, UniProt P20138 18-364); test: flow cytometry, transfected cells, IgG;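 also: CD33 point mutants transiently expressed in HEK293-T cells, antibody binding read by fluorescence, background subtracted and normalized to wild-type CD33 as 100%, duplicates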
# Chain of human CD33 D51K (P20138 18-364 D51K limits assumed): as the sequence (P20138 18-364 P201A limits assumed) above, with D34K, A184P counted along it
# Procedure: (§1) An alanine scan on human CD33 was performed to the determine the residues on CD33 that are involved in binding to the antibodies investigated. […] Briefly, a mutation library of CD33 was created by high-throughput, site-directed mutagenesis. Each residue was individually mutated to alanine, with alanine codons mutated to serine. The mutant library was arrayed in 384-well microplates and transiently transfected into HEK293-T. Following transfection, cells were incubated with the indicated antibodies (IgG or Fab) at concentrations pre-determined using an independent immunofluorescence titration curve on wild type CD33. […] Binding of each antibody to each mutant clone was determined in duplicates. For each point, background fluorescence was subtracted from the raw data, which were then normalized to antibody reactivity with wild type CD33.
# (§2) Antibodies were screened for binding to the human CD33 variants in IgG format. […] For each mutation, background fluorescence was subtracted from the raw data, which were then normalized to antibody reactivity with wild-type CD33.
# [19] = molecular target: human CD33 K52G (human, UniProt P20138 18-364); test: flow cytometry, transfected cells, IgG;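 also: CD33 point mutants transiently expressed in HEK293-T cells, antibody binding read by fluorescence, background subtracted and normalized to wild-type CD33 as 100%, duplicates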
# Procedure: as §1, §2
# [20] = molecular target: human CD33 K52H (human, UniProt P20138 18-364); test: flow cytometry, transfected cells, IgG;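 also: CD33 point mutants transiently expressed in HEK293-T cells, antibody binding read by fluorescence, background subtracted and normalized to wild-type CD33 as 100%, duplicates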
# Chain of human CD33 K52H (P20138 18-364 K52H limits assumed): as the sequence (P20138 18-364 P201A limits assumed) above, with K35H, A184P counted along it
# Procedure: as §1, §2
# [21] = molecular target: human CD33 K52T (human, UniProt P20138 18-364); test: flow cytometry, transfected cells, IgG;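 also: CD33 point mutants transiently expressed in HEK293-T cells, antibody binding read by fluorescence, background subtracted and normalized to wild-type CD33 as 100%, duplicates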
# Procedure: as §1, §2
# [22] = molecular target: human CD33 V56R (human, UniProt P20138 18-364); test: flow cytometry, transfected cells, IgG
# Chain of human CD33 V56R (P20138 18-364 V56R limits assumed): as the sequence (P20138 18-364 P201A limits assumed) above, with V39R, A184P counted along it
# Procedure: as §1, §2
# [23] = molecular target: human CD33 M120I (human, UniProt P20138 18-364); test: flow cytometry, transfected cells, IgG
# Procedure: as §1, §2
# [24] = molecular target: human CD33 R122E (human, UniProt P20138 18-364); test: flow cytometry, transfected cells, IgG
# Procedure: as §1, §2
# [25] = molecular target: human CD33 R122T (human, UniProt P20138 18-364); test: flow cytometry, transfected cells, IgG
# Procedure: as §1, §2
# [26] = molecular target: human CD33 Y127H (human, UniProt P20138 18-364); test: flow cytometry, transfected cells, IgG
# Procedure: as §1, §2
# [27] = molecular target: human CD33 Y127R (human, UniProt P20138 18-364); test: flow cytometry, transfected cells, IgG
# Procedure: as §1, §2
# [28] = molecular target: human CD33 Y129S (human, UniProt P20138 18-364); test: flow cytometry, transfected cells, IgG
# Procedure: as §1, §2
# [29] = molecular target: human CD33 S131H (human, UniProt P20138 18-364); test: flow cytometry, transfected cells, IgG
# Chain of human CD33 S131H (P20138 18-364 S131H limits assumed): as the sequence (P20138 18-364 P201A limits assumed) above, with S114H, A184P counted along it
# Procedure: as §1, §2
# [30] = molecular target: human CD33 S131K (human, UniProt P20138 18-364); test: flow cytometry, transfected cells, IgG
# Procedure: as §1, §2
# [31] = molecular target: human CD33 S131F (human, UniProt P20138 18-364); test: flow cytometry, transfected cells, IgG
# Procedure: as §1, §2
# [32] = molecular target: human CD33 S131Q (human, UniProt P20138 18-364); test: flow cytometry, transfected cells, IgG
# Procedure: as §1, §2
# [33] = molecular target: human CD33 P132S (human, UniProt P20138 18-364); test: flow cytometry, transfected cells, IgG
# Chain of human CD33 P132S (P20138 18-364 P132S limits assumed): as the sequence (P20138 18-364 P201A limits assumed) above, with P115S, A184P counted along it
# Procedure: as §1, §2
# [34] = molecular target: human CD33 P132T (human, UniProt P20138 18-364); test: flow cytometry, transfected cells, IgG
# Procedure: as §1, §2
# [35] = molecular target: human CD33 P132L (human, UniProt P20138 18-364); test: flow cytometry, transfected cells, IgG
# Procedure: as §1, §2
# [36] = molecular target: human CD33 P132D (human, UniProt P20138 18-364); test: flow cytometry, transfected cells, IgG
# Chain of human CD33 P132D (P20138 18-364 P132D limits assumed): as the sequence (P20138 18-364 P201A limits assumed) above, with P115D, A184P counted along it
# Procedure: as §1, §2
# [37] = molecular target: human CD33 P132N (human, UniProt P20138 18-364); test: flow cytometry, transfected cells, IgG
# Chain of human CD33 P132N (P20138 18-364 P132N limits assumed): as the sequence (P20138 18-364 P201A limits assumed) above, with P115N, A184P counted along it
# Procedure: as §1, §2
# [38] = molecular target: human CD33 L134F (human, UniProt P20138 18-364); test: flow cytometry, transfected cells, IgG
# Procedure: as §1, §2
# [39] = molecular target: human CD33 L134M (human, UniProt P20138 18-364); test: flow cytometry, transfected cells, IgG
# Procedure: as §1, §2
Binder,Mean % WT Binding [1] [% WT binding],Mean % WT Binding [2] [% WT binding],Mean % WT Binding [3] [% WT binding],Mean % WT Binding [4] [% WT binding],Mean % WT Binding [5] [% WT binding],Mean % WT Binding [6] [% WT binding],Mean % WT Binding [7] [% WT binding],Mean % WT Binding [8] [% WT binding],Mean % WT Binding [9] [% WT binding],Mean % WT Binding [10] [% WT binding],Mean % WT Binding [11] [% WT binding],Mean % WT Binding [12] [% WT binding],Mean % WT Binding [13] [% WT binding],Mean % WT Binding [14] [% WT binding],Mean % WT Binding [15] [% WT binding],Mean % WT Binding [16] [% WT binding],Mean % WT Binding [17] [% WT binding],Mean % WT Binding [18] [%],Mean % WT Binding [19] [%],Mean % WT Binding [20] [%],other results
B1,115,108,3.1,85.6,98,99.8,92.2,106,92.8,84.3,97,101,105,108,98.1,86.4,105,–,–,–,–
B2,–,–,–,–,–,–,–,–,–,–,–,–,–,–,–,–,–,77.7,105,86.1,Mean % WT Binding [21]: 106%; Mean % WT Binding [22]: 93.2%; Mean % WT Binding [23]: 102%; Mean % WT Binding [24]: 96%; Mean % WT Binding [25]: 114%; Mean % WT Binding [26]: 112%; Mean % WT Binding [27]: 108%; Mean % WT Binding [28]: 99.6%; Mean % WT Binding [29]: 68.5%; Mean % WT Binding [30]: 2.5%; Mean % WT Binding [31]: 2.4%; Mean % WT Binding [32]: 18.9%; Mean % WT Binding [33]: 3.2%; Mean % WT Binding [34]: 11.7%; Mean % WT Binding [35]: 6.1%; Mean % WT Binding [36]: 87.6%; Mean % WT Binding [37]: 2.2%; Mean % WT Binding [38]: 90.7%; Mean % WT Binding [39]: 99.5%
B3,111,103,12.3,103,102,93.5,111,97.1,88.2,102,96.9,107,85.6,114,134,94.5,91,–,–,–,–
B4,–,–,–,–,–,–,–,–,–,–,–,–,–,–,–,–,–,4.2,2.6,59.7,Mean % WT Binding [21]: 5%; Mean % WT Binding [22]: 87.4%; Mean % WT Binding [23]: 93%; Mean % WT Binding [24]: 95.8%; Mean % WT Binding [25]: 83.2%; Mean % WT Binding [26]: 97.2%; Mean % WT Binding [27]: 108%; Mean % WT Binding [28]: 94.7%; Mean % WT Binding [29]: 96.8%; Mean % WT Binding [30]: 96.4%; Mean % WT Binding [31]: 82.3%; Mean % WT Binding [32]: 80.6%; Mean % WT Binding [33]: 105%; Mean % WT Binding [34]: 93.1%; Mean % WT Binding [35]: 89.6%; Mean % WT Binding [36]: 90.5%; Mean % WT Binding [37]: 101%; Mean % WT Binding [38]: 102%; Mean % WT Binding [39]: 86.1%

# — patent US20260242735A1 (UNIVERSIT T BASEL, published 2026)
